According to article PMC8591229:
Bridge positions count the residues as written; N and C are the ends. Ends that are not written are not given here.

Molecular target: T1, human islet amyloid polypeptide (IAPP) (human) (not fully specified)
T1 chain: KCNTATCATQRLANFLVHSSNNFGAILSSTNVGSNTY
Assay: seeded thioflavin T fluorescence aggregation kinetics; 5 uM monomeric IAPP with preformed IAPP fibril seeds at 0 to 33% (monomer equivalents), 33 mM acetate, 150 mM KCl, pH 5.3, 37 C, quiescent; elongation (monomer added to fibril ends) from the initial gradient at 33% seeds and the fibril length by cryo-TEM
Details: remark: other sources report otherwise

**Q.** With KCNTATCATQRLANFLVHSSNNFGAILSSTNVGSNTY-NH2 (disulfide 2-7 (inferred); not fully specified) [human islet amyloid polypeptide (IAPP)] as the binder, how does the elongation rate constant k+ read?
**A.** 500000 M⁻¹ s⁻¹
